How the values were obtained:
[1] = test system: P. aeruginosa strain WC-453; assay: Time-kill assay in HEPES or CAA with 25% human serum (Tables 7, 8); assay type: cell-based, Pseudomonas aeruginosa
Procedure: Exponential phase bacteria were then pelleted and resuspended in 1/5 culture volume of 25 mM HEPES, pH 7.4 before a final adjustment to an optical density corresponding to a McFarland value of 0.5. […] All treatments were incubated at 37° C. with aeration. At time points before the addition of lysin (or buffer control) and at 1 hour and 3 hours intervals thereafter, culture samples were removed for quantitative plating on CAA agar plates.

P. aeruginosa isolates = assay: MIC against a range of isolates in CAA + […] human serum (Table 11); assay type: cell-based, Pseudomonas aeruginosa
P. aeruginosa strains = assay: Checkerboard synergy with meropenem in 25% CAA and […] human serum (Table 16); assay type: cell-based, Pseudomonas aeruginosa; conditions: for FICI value (Run #1), with meropenem / FICI value (Run #2), with meropenem: 25% CAA and […] human serum
[2] = test system: outer membrane of P. aeruginosa (CFS 1292); assay: N-phenyl-1-napthylamine (NPN) uptake assay, outer membrane destabilization (Table 15); assay type: cell-based, Pseudomonas aeruginosa; conditions: NPN fluorescence, buffer = 100, lysin 100 μg/well
Procedure: The ability of gram-negative lysins to destabilize the outer membrane of P. aeruginosa was evaluated through the use of an N-phenyl-1-napthylamine (NPN) uptake assay. […] NPN was added to a final concentration of […]. […] Changes in fluorescence were recorded (excitation 1=350 nm; emission 1=420 nm) over two hours.

[3] = test system: biofilms formed by P. aeruginosa strain ATCC 17646; conditions: strain ATCC 17646 biofilm
Procedure: (§1) Biofilms are then washed and treated with e.g., a 2-fold dilution series of the lysin in TSBg at e.g., 37° C. for 24 hours. After treatment, wells are washed, air-dried at e.g., 37° C. and stained with e.g., 0.05% crystal violet for 10 minutes.

[4] = test system: Pseudomonas aeruginosa strain CFS-1292 (meropenem resistant); assay: MIC in 25% CAA alone, with […] human serum or […] SURVANTA (Table 13); assay type: cell-based
Procedure: (§2) Materials and methods: MICs were determined by broth microdilution in media supplemented with human serum and pulmonary surfactant ([…]®; Myoderm Clinical Supplies). Minimal biofilm eradicating concentrations (MBECs) were determined using standard methods. […] Fluorescence microscopy was performed after LIVE/DEAD staining (ThermoFisher) and TEM was performed.

[5] = test system: Pseudomonas aeruginosa biofilm; assay: MBEC in CAA supplemented with […] human serum (Table 14); assay type: cell-based
Procedure: as §1, §2

P. aeruginosa = assay: MIC, modified CLSI broth microdilution in CAA medium without or with […] human serum (Table 4); assay type: cell-based, Pseudomonas aeruginosa; on CAA/HuS MIC: CAA supplemented with 2.5% human serum
Text: 2015. […] Clinical and Laboratory Standards Institute, Wayne, Pa.

[6] = test system: Pseudomonas aeruginosa strain CFS-1292 (meropenem resistant); conditions: strain CFS-1292; no added cations
Procedure: The activity of selected GN lysins and constructs in the presence of divalent cations was evaluated, and the impact of divalent cations at physiological concentrations was examined in the MIC assay format.

[7] = test system: carbapenem-resistant P. aeruginosa strains; assay: Resensitization of carbapenem-resistant strains, combinations with imipenem or meropenem (Tables 18-22); assay type: cell-based, Pseudomonas aeruginosa; conditions: for FICI: isolate WC-452
Procedure: Such resensitization may be determined by combining the present lysins or lysin-AMP polypeptide constructs with an antibiotic in a checkerboard assay as described herein. Antibiotic-resistant bacteria, such as carbapenem-resistant P. aeruginosa, are added to the lysin or lysin-AMP polypeptide construct combination. […] See Clinical and Laboratory Standards Institute (CLSI), CLSI. […] M100 Performance Standards for Antimicrobial Susceptibility Testing; 29th Edition. Clinical and Laboratory Standards Institute, Wayne, Pa., which is herein incorporated by reference in its entirety.
Up to seven carbapenem-resistant isolates were assessed. […] See Clinical and Laboratory Standards Institute (CLSI), CLSI. […] M100 Performance Standards for Antimicrobial Susceptibility Testing; 29th Edition. Clinical and Laboratory Standards Institute, Wayne, Pa.

B1: GN428: lysin obtained from Escherichia virus CBA120 (SEQ ID NO: 60) (protein, listed as Escherichia virus)
chain: MAILKLGNRGSEVKALQQSLNKIGFSLTADGIFGKATENAVKSVQAGAGLVIDGIAGPKTFYAIRNAGDAHQEHLTEADLVDAARELGVELASMKAVNQVESRGTGFTKTGKIKTLFERHIMYKKVTAKFGQARANALYQLYPTLVNPNSGGYIGGDAELERLQGAIALDEDCAYESASYGLFQIMGFNCQICGYSNAKEMFTDFLTGERAHLLAFVKFIKADANMWKALKNKNWAEFARRYNGPAYAKNQYDTKLAAAYKSFC
[1]; 10 μg/mL, enumerated lysins in CAA/HuS, general statement for HEPES and CAA/HuS
  bactericidal activity (CFU decrease of 3-Log10, 3 hours after the addition of lysin): bactericidal activity
[1]; CAA + 25% human serum, lysin 10 μg/ml, 1 hr, WC-453
  CAA/HuS (Log10 CFU/mL), 1 hr: 5.5 Log10 CFU/mL
[1]; CAA + 25% human serum, lysin 10 μg/ml, 3 hr, WC-453
  CAA/HuS (Log10 CFU/mL), 3 hr: <3.7 Log10 CFU/mL
P. aeruginosa isolates; Tables 11 and 12
  activity against P. aeruginosa isolates in human serum or SURVANTA: active against a variety of P. aeruginosa isolates
P. aeruginosa isolates; strain CFS 1109 (ATCC 17646)
  MIC, CAA + […] Human Serum: 1 µg/mL
P. aeruginosa isolates; strain CFS 1292
  MIC, CAA + […] Human Serum: 2 µg/mL
P. aeruginosa isolates; strain CFS1539 (PA1)
  MIC, CAA + […] Human Serum: 1 µg/mL
P. aeruginosa isolates; strain CFS 1540 (PA2)
  MIC, CAA + […] Human Serum: 1 µg/mL
P. aeruginosa isolates; strain CFS 1541 (PA3)
  MIC, CAA + […] Human Serum: 1 µg/mL
P. aeruginosa isolates; strain CFS 1557 (PA19)
  MIC, CAA + […] Human Serum: 4 µg/mL
P. aeruginosa isolates; strain CFS 1558 (PA20)
  MIC, CAA + […] Human Serum: 2 µg/mL
P. aeruginosa isolates; strain CFS 1559 (PA21)
  MIC, CAA + […] Human Serum: 2 µg/mL
P. aeruginosa isolates; strain CFS 1560 (PA22)
  MIC, CAA + […] Human Serum: 2 µg/mL
P. aeruginosa isolates; strain CFS 1561 (PA23)
  MIC, CAA + […] Human Serum: 2 µg/mL
P. aeruginosa isolates; strain CFS 1562 (PA24)
  MIC, CAA + […] Human Serum: 2 µg/mL
P. aeruginosa isolates; strain CFS 1596 (PA26)
  MIC, CAA + […] Human Serum: 1 µg/mL
P. aeruginosa isolates; strain CFS 1597 (PA27)
  MIC, CAA + […] Human Serum: 0.5 µg/mL
P. aeruginosa isolates; strain CFS 1669 (PA41)
  MIC, CAA + […] Human Serum: 2 µg/mL
P. aeruginosa isolates; strain CFS 1674 (PA46)
  MIC, CAA + […] Human Serum: 2 µg/mL
P. aeruginosa isolates; strain CFS 1675 (PA47)
  MIC, CAA + […] Human Serum: 1 µg/mL
P. aeruginosa isolates; strain CFS 1766 (ATCC 27853)
  MIC, CAA + […] Human Serum: 4 µg/mL
P. aeruginosa strains; FICI less than or equal to 0.5 = potent synergy
  synergy with meropenem: exhibited synergy with meropenem
P. aeruginosa strains; strain CFS 1292
  FICI value (Run #1), with meropenem: 0.1875
  FICI value (Run #2), with meropenem: 0.219
P. aeruginosa strains; strain CFS 1557 (PA19)
  FICI value (Run #1), with meropenem: 0.1562
  FICI value (Run #2), with meropenem: 0.198
P. aeruginosa strains; strain CFS 1558 (PA20)
  FICI value (Run #1), with meropenem: 0.09375
  FICI value (Run #2), with meropenem: 0.135
P. aeruginosa strains; strain CFS 1559 (PA21)
  FICI value (Run #2), with meropenem: 0.396
P. aeruginosa strains; strain CFS 1560 (PA22)
  FICI value (Run #2), with meropenem: 0.229
P. aeruginosa strains; strain CFS 1561 (PA23)
  FICI value (Run #2), with meropenem: 0.323
P. aeruginosa strains; strain CFS 1562 (PA24)
  FICI value (Run #2), with meropenem: 0.198
P. aeruginosa strains; strain CFS 1766 (ATCC 27853)
  FICI value (Run #2), with meropenem: 0.156
[2]; 5 minutes
  % RFU: 194 % RFU
[2]; 10 minutes
  % RFU: 242 % RFU
[2]; 20 minutes
  % RFU: 271 % RFU
[2]; 40 minutes
  % RFU: 250 % RFU
[2]; 60 minutes
  % RFU: 183 % RFU
[2]; 100 minutes
  % RFU: 137 % RFU
[3]
  MBEC: 1 µg/mL
[4]
  MIC in […] Survanta: 4 µg/mL
  MIC in human serum ([…]) in CAA: 0.125 µg/mL
  activity in human serum and pulmonary surfactant: active in human serum and pulmonary surfactant
[4]; media alone
  25% CAA MIC: 4
[5]
  MBEC in CAA supplemented with […] human serum: 1 µg/mL
P. aeruginosa; CAA medium, no human serum
  CAA MIC: 8000 µg/mL
P. aeruginosa; CAA supplemented with […] human serum
  CAA/HuS MIC: 125 µg/mL
[6]
  MIC in 25% CAA: 4 µg/mL
[7]; imipenem (IPM) and meropenem (MEM), carbapenem-resistant isolates
  resensitization to carbapenems in synergistic combinations: reductions of IPM and MEM MICS to below breakpoint values
[7]; lysin + imipenem
  FICI: 0.188
[7]; lysin + meropenem
  FICI: 0.188
[7]; vs. WC-452 (Table 22)
  Antibiotic MIC / Lysin MIC, Alone: 2

— patent US20210324359A1, “USE OF GRAM-NEGATIVE LYSIN-ANTIMICROBIAL PEPTIDE (AMP) POLYPEPTIDE CONSTRUCTS IN TREATING ENDOCARDITIS” (priority 2020, published 2021)
